Assay results reported in patent US20060073572A1, “Cytokine structurally related to IL-17” (The Johns Hopkins University, priority 2001, published 2006).
“Also recorded” adds a separate entry of the source.

Legend:
Type in all cases: cell-based, human
[1] = test system: IL-6; test: IL-6 expression in PBECs (ELISA, RT-PCR); conditions: ML-1 10 and 100 ng/ml, 24 and 48 hours, ELISA
Protocol: (§1) FIG. 5. Analysis of IL-6 (FIG. 5A) and IL-8 (FIG. 5B) expression in primary bronchial epithelial cells (PBECs) and human umbilical vein endothelial cells (HUVECs) stimulated by ML-1. The IL-6 and IL-8 protein release in the supernatant was determined by ELISA as described in Example 8. The results were expressed as mean+SD (n=6). *p<0.05 was considered significant vs control.
(§2) FIG. 7A-7D. Effect of PD98059 on IL-6 (FIG. 7A) and IL-8 (FIG. 7B) protein production in PBECs and HUVECs. The cells were preincubated with varying concentrations of PD98059, SB202190, or DMSO vehicle control for 1 hour, followed by stimulation with ML-1 (100 ng/ml) for 24 hours. The results are expressed as the mean+SD (n=6). *P<0.05 when compared to cultures without the addition of PD98059. FIGS. 7C and 7D. Semi-quantitative analysis of gene expression for IL-6 (FIG. 7C) and IL-8 (FIG. 7D) by RT-PCR. The cells were preincubated as described above and treated with ML-1 for 4 hours. RT-PCR was performed as described in Example 8. The results shown are representative of three separate experiments.
(§3) Primary bronchial epithelial cells (PBECs) were purchased from Clonetics (San Diego, Calif.) and cultured in bronchial epithelial basal medium (Clonetics) containing 0.5 ng/ml human recombinant epidermal growth factor (EGF), 52 mg/ml bovine pituitary extract, 0.1 mg/ml retinoic acid, 0.5 mg/ml hydrocortisone, 5 mg/ml insulin, 10 mg/ml transferrin, 0.5 mg/ml epinephrine, 6.5 ng/ml triiodothyronine, […] gentamicin, and 50 pg/ml amphotericin-B (Clonetics). […]
(§4) The amplification reaction was performed for 23 cycles with denaturation at 94° C. for 45 seconds, annealing at 56° C. for 45 seconds, and extension at 72° C. for 45 seconds. PCR products were detected by ethidium bromide staining and normalized by the intensity of an amplified housekeeping gene, G3PDH (see above). […] IL-6 and IL-8 protein levels in the collected supernatants were determined with a commercially available ELISA kit (Biosource, Camarillo, Calif.) according to the manufacturer's instructions.

[2] = test system: IL-6; test: IL-6 expression in HUVECs (ELISA, RT-PCR); conditions: ML-1 10 and 100 ng/ml, 24 and 48 hours, ELISA
Protocol: as §1, §2
Human umbilical vein endothelial cells (HUVECs) were obtained from Clonetics and cultured in endothelial cell growth media (EGM; Clonetics) containing 12 μg/ml bovine brain extract, 10 ng/ml EGF, 1 μg/ml hydrocortisone, 50 μg/ml gentimicin, 50 ng/ml amphotericin B, and 5% FBS amphotericin-B (Clonetics).
PBECs and HUVECs were treated with ML-1 100 ng/ml of ML-1 for various time points. Total RNA was extracted using RNeasy (Qiagen) from 1×10^6 cells 4 hours after stimulation or exchange of media. […]
as §4

[3] = test system: IL-8; test: IL-8 expression in PBECs (ELISA, RT-PCR); conditions: ML-1 10 and 100 ng/ml, 24 and 48 hours, ELISA
Protocol: as §1, §2, §3, §4

[4] = test system: JNK; test: Western blotting of JNK activation in ML-1-stimulated cells; conditions: any time point, FIG. 6A (PBECs)
Protocol: (§5) FIGS. 6A-6D. Kinetic activation of ERK1/2 by ML-1 in PBECs (FIG. 6A) and HUVECs (FIG. 6B). The cells were incubated with or without ML-1 (100 ng/ml) for different time points as indicated. Western blotting analysis was performed by using antibodies against different MAP kinases as described in Example 8. FIGS. 6C and 6D. Effect of PD98059 on ML-1-induced phosphorylation of ERK1/2 in PBECs (FIG. 6C) and HUVECs (FIG. 6D). The cells were preincubated with PD98059 ([…]) or DMSO vehicle control for 1 hour, followed by stimulation of PBECs and HUVECs with medium or ML-1 for 20 minutes or 10 minutes, respectively. The results shown are representative of three separate experiments.
For analysis of activation of MAP kinases, PBECs were treated with IL-17 (100 ng/ml) for various time periods, with or without the MEK 1/2 inhibitor PD98059 ([…]; Calbiochem, La Jolla, Calif.) (15), the p38 inhibitor SB202190 (0.5-10 μM; ref. 16), or a vehicle control, DMSO (Me2SO) for 1 hour. […] Following the treatment, the cells were washed with ice-cold PBS. […]
(§6) Immunoreactive proteins were detected using antibodies against various kinases and phosphorylated kinases. […] Western blotting detection reagents (Amersham) and Hyper ECL luminescence detection film (Amersham) were used. […]

[5] = test system: ERK1/2; test: Western blotting of ERK1/2 phosphorylation in PBECs; conditions: ML-1 100 ng/ml
Protocol: as §5
For analysis of activation of MAP kinases, PBECs were treated with IL-17 (100 ng/ml) for various time periods, with or without the MEK 1/2 inhibitor PD98059 ([…]; Calbiochem, La Jolla, Calif.) (15), the p38 inhibitor SB202190 (0.5-10 μM; ref. 16), or a vehicle control, DMSO (Me2SO) for 1 hour. […] Following the treatment, the cells were washed with ice-cold PBS. Cell pellets were immediately lysed in cold lysis buffer [20 mM Tris (pH 7.4), 4 mM EDTA, 2 mM EGTA, 1 mM PMSF, […] aprotinin, 200 mg/ml leupeptin, 50 mM NaF, 5 mM NaRP2O7, 1 mM Na3VO4, and 1% Nonidet P40; all purchased from Sigma]. Extracts (1×10^6 cell equivalents/lane) were suspended with an equal volume of 2× loading buffer [0.1 M Tris-HCl (pH 6.8)], 4% SDS, 0.005% bromophenol blue, and 20% glycerol) containing 2-ME (0.7 M) and subjected to 4-20% Tris-glycine gel electrophoresis (NOVEX, San Diego, Calif.). Gels were then transferred to PVDF membranes (BIO-RAD, Hercules, Calif.) with a Trans Blot apparatus (NOVEX). The membranes were immersed overnight in This-buffered saline/Tween 20 containing 5% nonfat dry skim milk (Carnation, Los Angeles, Calif.).
as §6

B1: ML-1: new member of the IL-17 cytokine family, SEQ ID NO:2; His-tagged recombinant protein expressed in COS-7 cells and affinity purified (protein, listed as Homo sapiens)
chain: MKLDIGIINENQRVSMSRNIESRSTSPWNYTVTWDPNRYPSEVVQAQCRNLGCINAQGKEDISMNSVPIQQETLVVRRKHQGCSVSFQLEKVLVTVGCTCVTPVIHHVQ
modifications: His tag
With B1 the IL-6 production [1] was “time-dependent increase; also recorded: significantly induced”, the IL-6 production [2] was “time-dependent increase; also recorded: significantly induced” and the IL-8 production [3] was “time-dependent increase; also recorded: significantly induced”. For the same molecule, the “activation of JNK kinase” value [4] was “No activation”, the “time of maximum phosphorylation of ERK1/2” value [5] was 20 min and the “time of return of ERK1/2 phosphorylation to baseline levels” value [5] was ≤ 60 min.
